Paper PMC2132786

How the values were obtained:
Assay in all cases: sucrose density gradient sedimentation
[1] = target: L80P mutant hemagglutinin (X:31 strain, HA2 L80P) (influenza virus, X:31 strain) (UniProt P03437)
[2] = target: S71P mutant hemagglutinin (X:31 strain, HA2 S71P) (influenza virus, X:31 strain) (UniProt P03437)
[3] = target: V55P/S71P double proline mutant hemagglutinin (X:31 strain, HA2 V55P and S71P) (influenza virus, X:31 strain) (UniProt P03437)

L80P mutant hemagglutinin (X:31 strain, HA2 L80P) (from UniProt P03437 17-344) (natural protein)
stoichiometry N [1]: 3

S71P mutant hemagglutinin (X:31 strain, HA2 S71P) (from UniProt P03437 17-344) (natural protein)
stoichiometry N [2]: 3

V55P/S71P double proline mutant hemagglutinin (X:31 strain, HA2 V55P and S71P) (from UniProt P03437 17-344) (natural protein)
stoichiometry N [3]: 3
